# The DeepSol protein solubility set
# Assay: soluble on expression in E. coli; label from the status in PepcDB or PDB records
row,Sequence,soluble on expression in E. coli
1,MKLSLVLTARDDGARRLLADTQRQLDRTAKSRAQLERQSHTYALTGIRSEKQIQREIMLTQAAFNRLARSGKASQNDLARAAVATRNRIRELNAELKQGTGFADKMGKIGRFGAAAVAGGAAAYTVLKPAMDNRKQLDENINRVSRQAFIEDNSKSAAWIATEGAQQIKDLALELVEKNGGTHDKALDLISGMMTTGLNFAQTKNEAQAAYAFALASEGSGEDTAKLIKTLKDGGMSGKDLQLGLEHVLQSGLDGTFEVRDMVRELPSLLSAAQQAGMNGVGGLDYLLSLLQSAANKSGSPAEAATNVQNLLSKTLSPDTIGRLKKMANPNDPKKGVDWIGSVVQGKQNGENAVQVLSRLADAMLVKDKQYQDYKKRAAAGDKTAAEQANMLKGALLAQLLPDLQAKQGLLAATDMTQIREYMASLAGVTLDNGKIAKNNEARMLSAAAQQEQQESLAMLRESLTGTLVDMETSFKKLAAEYPNATLALQALTTAATAASAAMLLTAGGGKGAGFLKDVGSKALGWGKASAGGVAAGATAAGGKLLSWGKSAGSGLMNNPALVKRAGLLGMLLYSESLGDGTLPKGLRGTKTTPEMINRLKNNGIRFEPAPKREQARGGVPQYLAAPSAQPTDKMLSPLFSTQTAAYQAAIQQQTAAYQAALAQDTAAVTTGLAQVQSAMASASQTINTNVSLNIDGRVIANEVSRYQVAMFGRGAGQ,not soluble
2,MGSDKIHHHHHHMAFAMKVISQVEAQRKILEEAVSTALELASGKSDGAEVAVSKTTGISVSTRYGEVENVEFNSDGALGITVYHQNRKGSASSTDLSPQAIARTVQAALDIARYTSPDPCAGVADKELLAFDAPDLDLFHPAEVTPDEAIELAARAEQASLKADKRITNTEGGSFNSHYGIKVFGNSHGMLQGYCSTRHSLSSCVIAEENGDMERDYAYTIGRAMADLQAPEWVGAECARRTLSRLSPRKLSTMKAPVIFANEVATGLFGHLVGAIAGGAVYRKSTFLLDSLGKQILPEWLTIEEHPHLLKGLASSPFDSEGVRTERRDIVKDGVLTQWLLTNYSARKLGLKSTGHAGGIHNWRIAGQGLNFEQLLKEMGTGLVVTELMGQGVSGITGDYSRGAAGFWVENGEIQYPVSEITIAGNLKEMWRNIVTVGDDIETRSNIQCGSVLLPEMKIAGQ,not soluble
3,MSLSIFTDLNTSRKWQIDQWLSAVNSHIEKIQQYGHSVVNPTPLLADGFEIKTQSPVVWQFPDGHDAPISNFASQQNWLRLLISMSVITETEKYRHLAFCQSEYFLNRFVDENSGLFYWGGHRFINLDTLASEGPESKSMVHELKHHLPYYEFLHQVNPEKTRHFIQGFWNAHVEDWSCLDLGRHGDYARQRDPDVFLHSRHDVVTPANWPELPLTKGLTFVNAGTDLIYAAFVYARHTGDAHAAAWGKHLYRQYVLARNPETGMPVYQFSSPLQRQPVPADDNQTQSWFGDRAQRQFGPEFGAIAREANVLFRDMRPLLIDNPLAMLDILRHQPDAEILTWVIAGLKNYYQYAYDVNSNSLRPMWNNGQDMTDYCFKRDGYYGKAGTVLKPFPLEGDYLLPLVRAWLLSDDDDLHTLIVTMLSRLEKQGIHQSASPFLLLAITELAHAKQSAQWAEYAWQMAEILFKRYFHHGLFVRSEHHRYVRLDDPFPAILLTLIAACRNKWSEVPAVLTQGGYIHGDYRINGESRVIYDTGIYLPRKINEGHHHHHH,not soluble
4,MMTSAFAPSEQSLVASPQDLPAVDVAIVGAGIVGLSLACALRNSGLAIALIEATPYRRENTKGQAYALHQVSRYFFEEIGVWDKLMPHVQPFEVVQLSDERFPLTVHFSPADLGTEALGYVGEHSAIAETLQSVLQSAGNVTFYCPWRVVTNEVHGDRAQLTLISGDPGEPKVAHLAARLVVAADGGKSPLRQQMGIEPKGWQYPQSCVVATLDVAHPQPVIAYERFWPTGPMGVLPLPRNRYRVVWTLPHPEAEAVAALDDRSFLATLQPYLDPQMAEITAVGDRFVFPAQFMQVNSYAADRFVVIGDAAHRCHPVGGQGLNLGLRDVWNLAQQILASPLEEIGDRRHLMHFHRQRWWQNVLTLAFTDFLNRLFSNTGWPLVAVRRCGLGLLCLLPPLKRLLLRFMAGLLLPLPGDREFPRGRLEHHHHHH,not soluble
5,MGSDKIHHHHHHAESDSFEDNSSNFESMISLYGIQSATVDSKVGDVPSVTAEEMASVLEALRQNGNTIRNCESETLEGYYEGGDRKEVKMIAEYQARTRSGAFVEQFALCVSVNFNIDNNGGVFYIGTTYSSSTDLFNWQGYGASLSTTAEGNSVFSSTSYLYFRVSDQGNCLVKVPVSFKGSYNFKDNKGTYSFTLSKAAN,not soluble
6,MGHHHHHHSHMKTRQAFYLHTTKLTRIARRLCREILRPWHAARHPYLPINSAAIKAECTARLPEASQSPLVLKQAVRKPLEAVLRYLETHPRPPKPDPVKSVSSVLSSLTPAKVAPVINNGSPTILGKRSYEQHNGVDGNMKKRLLMPSRGLANHGQTRHMGPSRNLLLNGKSYPTKVRLIRGGSLPPVKRRRMNWIDAPDDVFYMATEETRKIRKLLSSSETKRAARRPYKPIALRQSQALPPRPPPPAPVNDEPIVIED,soluble
7,SMANHLVKPDNRNCKRPRELESPVPDSPQLSSLGKSDSSFSEISGLFYKDEALEKDLNDVSKEINLMLSTYAKLLSERAAVDASYIDEIDELFKEANAIENFLIQKREFLRQRFTVIANTLHR,soluble
8,MGSDKIHHHHHHAAVGEKLGWPQQKISKIESGEQKRIPAAELDALLEVYGVTDPQIRESLHECARLAKERGWWTRYKDAFPSGLPDFESEASVIRSYECQVIPGILQTPDYADAIFRAYKLREDKEIDRLVKARMERQNILNRVDPPHFMTIIDEAALHRLVGSVEVMRTQLRHLTHMASRHNIDIYVLPFKAGAHAATTGSFMIMDFPDPMDNSIVYVDTPTSILYIEDEEEVREFNVMFSRTQSAALSPTLSMDLVKKVIKSLEE,not soluble
9,QAMFERFTDRARRVIVLAQEEARMLNHNYIGTEHILLGLIHEGEGVAAKALESMGISLDAVRQEVEEIIGQGSQPTTGHIPFTPRAKKVLELSLREGLQMGHKYIGTEFLLLGLIREGEGVAAQVLVKLGADLPRVRQQVIQLLSG,soluble
10,MGSDKIHHHHHHMKVAVIGAKGQLGTDLVDVLKEEFTVYPLTHEDVDVAVSESLEVLRDIHPDVIINTAAYVRVDDAENHAEKAFAVNAIGALNVARISSEIDAVNIYISTDYVFDGEKGEPYVETDKPNPINVYGASKYAGEILTKNYSEKHYVIRVASLYGKAGASGKGGNFVNWVVDMARKGQELRIVADQFMSPTYTKDVALAVREFLKLRPDYGIYHMVNDGYCSWFEFTKAIFEILDWDVEIQPIKSSELNRLARRPAFSALQNYKLERIGIKMRHWREALRDYLAEKGLV,not soluble
11,MGSDKIHHHHHHMNTVTIIGCGWFGLPLATQLVKQGIKVKASKRHPEDLVQLQQAGVDAYQLNLANVNSQAKNSSLFDADAIVINLPPGLRRGETDYLGYLTQLITLMGEHQYQKIIFISTTGVYPSLDQTVTEQDAAAFNDTSRTLLQAEAMFSAMKNSCIVRFSGLVGPKRHPGRFFAGKTDVSGANVAVNLVHLDDCIAAVSLILSRNDTLPIYNLAANAHPTRGEFYVAAAEHLGLTAPEFNQQQQPNKTIDGQLICHHLGFTYAFNNPFKMLDAC,not soluble
12,MGSDKIHHHHHHMLYADENSFDIGAKITKTKPVLLPIGAVEAHGPHLPLGTDNILASEYSAKIAAETSGFVLPVLPYGQVWSLQDFPGSLTLSNETVTKVVVEIGESLYKQGFRLFVPVSGHLGNMAALKDAARELYAKYPDMVILHIFYPNIQKLAMDVREGNANHHTYIHACEIETSLMLYLSPENADMSRAIDDPPILPIDADFTPTPWQNFTKTAVLGEATLATAEKGEYLIEKTLKTCVELIKLEQEKIRKSTEME,not soluble
13,MAKNDIWTPLESNPDSLYLYSCKLGQSKLKFVDIYGFNNDLLDMIPQPVQAVIFLYPVNDNIVSENNTNDKHNLKENFDNVWFIKQYIPNSCGTIALLHLYGNLRNKFELDKDSVLDDFFNKVNEMSAEKRGQELKNNKSIENLHHEFCGQVENRDDILDVDTHFIVFVQIEGKIIELDGRKDHPTVHCFTNGDNFLYDTGKIIQDKFIEKCKDDLRFSALAVIPNDNFDII,soluble
14,MAAETTSEDVKLAASFKDASKLGIDQKSGIPRKVKGTLTWRLELKRTNDGFWISAFFKGASKKKISIKAEFTLLCAGQEPLNKTEKKDSDCTKKSTEYEVCAMFTECETENHFEKGSDLRFEVELTIVMENSSKKSSVKPKPEAKQEPTKENDKIVGSESMMLDQLTSKLFLKASEGARIISNEIINDLLDIANRFDVPEVKTKCEQFLLEDLKKALKEKMETAEKYELDCLQAVKSADDALANSLEKLAIK,not soluble
